# Test results published in patent US7326418B2, “Identification of novel factors that block programmed cell death or apoptosis by targeting JNK” (University of Chicago, priority 2001, dated 2008).
# T1: JNKK1/MKK4 (Mus musculus, UniProt P47809)
# T1 construct: expressed in transfected cells; host or cells: HEK-293; anti-FLAG immunoprecipitate
# T1 sequence (P47809 2-397): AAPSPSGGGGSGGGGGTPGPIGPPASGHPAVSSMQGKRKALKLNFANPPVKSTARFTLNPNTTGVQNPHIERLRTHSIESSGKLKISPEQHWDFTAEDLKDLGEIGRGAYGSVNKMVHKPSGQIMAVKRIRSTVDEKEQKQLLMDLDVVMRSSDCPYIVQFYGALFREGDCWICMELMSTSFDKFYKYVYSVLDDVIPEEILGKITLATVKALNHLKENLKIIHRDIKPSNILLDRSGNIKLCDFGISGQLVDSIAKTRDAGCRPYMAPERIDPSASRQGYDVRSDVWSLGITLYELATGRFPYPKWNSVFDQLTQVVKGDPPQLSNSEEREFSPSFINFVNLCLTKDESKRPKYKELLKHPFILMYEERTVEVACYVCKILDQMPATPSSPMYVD
# B1: GST-Gadd45β: full-length murine Gadd45β directly fused to GST, purified from E. coli (protein)
# chain: MTLEELVASDNAVQKMQAVTAAVEQLLVAAQRQDRLTVGVYEAAKLMNVDPDSVVLCLLAIDEEEEDDIALQIHFTLIQSFCCDNDIDIVRVSGMQRLAQLLGEPAETLGTTEARDLHCLLVTNCHTDSWKSQGLVEVASYCEESRGNNQWVPYISLEER
# modifications: left off: a dimerising Fc or GST
# notes: full-length murine Gadd45β directly fused to GST, purified from E. coli
# B2: Gadd45β: purified recombinant His6-tagged Gadd45β protein; also used generically for the recombinant Gadd45β proteins (protein, UniProt O75293 1-160, looked up)
# Growth arrest and DNA …: MTLEELVACDNAAQKMQTVTAAVEELLVAAQRQDRLTVGVYESAKLMNVDPDSVVLCLLAIDEEEEDDIALQIHFTLIQSFCCDNDINIVRVSGMQRLAQLLGEPAETQGTTEARDLHCLLVTNPHTDAWKSHGLVEVASYCEESRGNNQWVPYISLQER
# modifications: His6 tag
# notes: purified recombinant His6-tagged Gadd45β protein; also used generically for the recombinant Gadd45β proteins
# B3: His6-Gadd45β: human full-length Gadd45β purified from E. coli as His6-tagged protein (protein, UniProt O75293 1-160, looked up)
# chain: B2 Growth arrest and DNA …
# modifications: full-length His6 tag
# notes: human full-length Gadd45β purified from E. coli as His6-tagged protein
# Biological target: T1, JNKK1/MKK4
# Experiment: Kinase assay of immunoprecipitated FLAG-JNKK1/MKK4 with recombinant Gadd45β proteins
# Assay type: biochemical
# Details: in vitro, even at high concentrations
# Procedure: Next, the functional consequences, in vitro, of the physical interactions of Gadd45β with kinases in the JNK pathway were assessed. Murine and human, full-length Gadd45J3 proteins were purified from E. coli as GST-Gadd45β and His6-tagged Gadd45β (His6 disclosed as SEQ ID NO: 46), respectively, according to standard procedures. Prior to employing these proteins in in vitro assays, purity of all recombinant polypeptides was assured by >98%, by performing Coomassie blue staining of SDS polyacrylamide gels. Then, the ability of these proteins, as well as of control GST and His6-EF3 (His6 disclosed as SEQ ID NO: 46)proteins, to inhibit kinases in the JNK pathways was monitored in vitro. FLAG-tagged JNKK2, JNKK1, MKK3, and ASK1 were immunoprecipitated from transiently transfected 293 cells using anti-FLAG antibodies and pre-incubated for 10 minutes with increasing concentrations of recombinant proteins, prior to the addition of specific kinase substrates (i.e. GST-JNK1 with JNKK1 and JNKK2; GST-p38[…] with MKK3; GST-JNNK1 or GST-JNKK2 with ASK1). […] These findings indicate that, upon binding to Gadd45β, JNKK2 is effectively inactivated.
# A question was whether Gadd45β inhibited active MKK7, in vitro. FLAG-MKK7 was immunoprecipitated from TNFα-treated or untreated 293 cells, and kinase assays were performed in the presence of purified His6-Gadd45β (His6 disclosed as SEQ ID NO: 46), GST-Gadd45β, or control proteins (FIG. 28d; see also FIG. 28g). […] Consistent with the in vivo findings (FIG. 27), the inhibitory activity of Gadd45β was specific. […] Indeed, the effects of Gadd45β on MKK7 phosphorylation by TNFα may be due inhibition of the MKK7 ability to auto-phoshorylate and/or to serve as substrate for upstream kinases. Altogether, the findings identify MKK7 as a target of Gadd45β, and of NF-[…]B, in the JNK cascade. Of interest, MKK7 is a selective activator of JNK, and its ablation abolishes JNK activation by TNFα. Thus, blockade of MKK7 is sufficient on its own to explain the effects of Gadd45β on JNK signaling—i.e. its specific and near-complete suppression of this signaling. […]
molecule,measurement,value
B1,effect on JNKK1/MKK4 kinase activity,neither GST-Gadd45β nor His6-Gadd45β (His6 disclosed as SEQ ID NO: 46) had significant effects
B2,effect on JNKK1/MKK4 kinase activity,did not hamper
B3,effect on JNKK1/MKK4 kinase activity,neither GST-Gadd45β nor His6-Gadd45β (His6 disclosed as SEQ ID NO: 46) had significant effects
